Reference: patent publication US20140058068A1 (UNIVERSITY OF MIAMI, published 2014)
One block for each molecule: values may come before it. Square brackets hold non-standard residues; d marks the D form. Ends that are not written are not given here. * marks the point of attachment. Desaminotyrosyl = O=C(CCc1ccc(O)cc1)*; NMeY = CN[C@@H](Cc1ccc(O)cc1)C(=O)O; hArg = N=C(N)NCCCC[C@H](N)C(=O)O; Agmatine = N=C(N)NCCCCN*; Nle = CCCC[C@H](N)C(=O)O; Orn = NCCC[C@H](N)C(=O)O; Abu = CC[C@H](N)C(=O)O; GABA = NCCCC(=O)O

Legend:
[1] = target: GHRH receptor of human pituitary membrane homogenates (human) (UniProt Q02643); experiment: radioligand competition, 125I-JV-1-42 (~0.2 nM) as competitor, human pituitary membrane homogenates
[2] = target: GHRH receptor of human pituitary membrane homogenates (human) (UniProt Q02643); experiment: as above; remark: listed apart in the source
[3] = target: GHRH receptor of human pituitary membrane homogenates (human) (UniProt Q02643); experiment: radioligand competition, [His1,125I-Tyr10,Nle27]hGHRH(1-32)NH2 (0.2 nM) as competitor, human pituitary membrane homogenates
[4] = target: T1, GHRH receptor of human pituitary membrane homogenates (human, UniProt Q02643 23-423); experiment: as above
T1 construct: whole, on cells; Native receptor in pituitary membrane homogenates, not intact cells; also called hGH-RH receptor
T1 sequence (looked up): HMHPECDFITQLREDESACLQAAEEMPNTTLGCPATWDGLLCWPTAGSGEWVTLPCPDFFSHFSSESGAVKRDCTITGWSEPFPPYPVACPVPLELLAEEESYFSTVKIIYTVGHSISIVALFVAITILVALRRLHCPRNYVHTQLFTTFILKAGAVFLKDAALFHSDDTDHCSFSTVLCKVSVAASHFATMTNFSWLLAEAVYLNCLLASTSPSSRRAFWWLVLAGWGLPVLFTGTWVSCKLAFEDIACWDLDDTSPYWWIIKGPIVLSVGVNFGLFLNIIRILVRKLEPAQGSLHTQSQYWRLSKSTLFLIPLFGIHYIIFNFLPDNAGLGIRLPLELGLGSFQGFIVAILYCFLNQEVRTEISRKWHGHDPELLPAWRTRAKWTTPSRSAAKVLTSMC
Source text: Normal human pituitaries were purchased from the National Hormone and Peptide Program (A. F. Parlow, Los Angeles, County Harbor—UCLA Medical Center, Torrance, Calif.).

[5] = target: T1, GHRH receptor of human pituitary …; experiment: radioligand competition, 125I-JV-1-42 (~0.2 nM) as competitor, human pituitary membrane homogenates
Source text: (§1) Normal human pituitaries were purchased from the National Hormone and Peptide Program (A. F. Parlow, Los Angeles, County Harbor-UCLA Medical Center, Torrance, Calif.).

[6] = target: T1, GHRH receptor of human pituitary …; experiment: as above; remark: listed apart in the source
Protocol: as §1
The final binding affinities were expressed as IC₅₀ values and were calculated by using the LIGAND PC computerized curve-fitting program of Munson and Rodbard as modified by McPherson.

Molecule: [Dat^1, D-Ala^2, Fpa5^6, Orn^12, Abu^15, Orn^21, Nle^27, Gab^30]hGH-RH(1-30)NH2 (from UniProt P01286 32-61) (peptide)
- IC50 [1]: 0.07 nM
- Relative affinity (Binding potency) vs GHRH (fold, GHRH(1-29) = 1) [1]: 58
- Relative affinity (Binding potency) vs JI-38 (fold, JI-38 = 1) [1]: 24.4
- IC50 [2]: 0.33 nM
- Relative affinity (Binding potency) vs JI-38 (fold, JI-38 = 1) [2]: 13.2

Molecule: [Dat^1, D-Ala^2, Gln^8, Orn^12, Abu^15, Orn^21, Nle^27, Asp^28, Agm^29]hGH-RH(1-29) (from UniProt P01286 32-60) (peptide)
- IC50 [1]: 0.04 nM
- Relative affinity (Binding potency) vs GHRH (fold, GHRH(1-29) = 1) [1]: 102
- Relative affinity (Binding potency) vs JI-38 (fold, JI-38 = 1) [1]: 42.7
- IC50 [2]: 0.52 nM
- Relative affinity (Binding potency) vs JI-38 (fold, JI-38 = 1) [2]: 8.37

Molecule: [Dat^1, D-Ala^2, Gln^8, Orn^12, Abu^15, Orn^21, Nle^27, Asp^28, Amc^30]hGH-RH(1-30)NH2 (from UniProt P01286 32-61) (peptide)
- IC50 [3]: 0.08 nM
- Relative affinity (Binding potency) vs GHRH (fold, GHRH(1-29) = 1) [3]: 74
- Relative affinity (Binding potency) vs JI-38 (fold, JI-38 = 1) [3]: 24.4

B2: [Dat^1, D-Ala^2, Ala^8, Orn^12, Abu^15, Orn^21, Nle^27, Asp^28, Har^30]hGH-RH(1-30)NH2 (peptide)
chain: [Desaminotyrosyl][dA]DAIFTASYR[Orn]VL[Abu]QLSAR[Orn]LLQDI[Nle]DR[hArg]-NH2
SMILES: CCCC[C@H](NC(=O)[C@@H](NC(=O)[C@H](CC(=O)O)NC(=O)[C@H](CCC(N)=O)NC(=O)[C@H](CC(C)C)NC(=O)[C@H](CC(C)C)NC(=O)[C@H](CCCN)NC(=O)[C@H](CCCNC(=N)N)NC(=O)[C@H](C)NC(=O)[C@H](CO)NC(=O)[C@H](CC(C)C)NC(=O)[C@H](CCC(N)=O)NC(=O)[C@H](CC)NC(=O)[C@H](CC(C)C)NC(=O)[C@@H](NC(=O)[C@H](CCCN)NC(=O)[C@H](CCCNC(=N)N)NC(=O)[C@H](Cc1ccc(O)cc1)NC(=O)[C@H](CO)NC(=O)[C@H](C)NC(=O)[C@@H](NC(=O)[C@H](Cc1ccccc1)NC(=O)[C@@H](NC(=O)[C@H](C)NC(=O)[C@H](CC(=O)O)NC(=O)[C@@H](C)NC(=O)CCc1ccc(O)cc1)[C@@H](C)CC)[C@@H](C)O)C(C)C)[C@@H](C)CC)C(=O)N[C@@H](CC(=O)O)C(=O)N[C@@H](CCCNC(=N)N)C(=O)N[C@@H](CCCCNC(=N)N)C(N)=O
- IC50 [4]: 0.04 nM
- Relative affinity (Binding potency) vs GHRH [4]: 148 fold, GHRH(1-29) = 1
- Relative affinity (Binding potency) vs JI-38 [4]: 48.7 fold, JI-38 = 1

B3: [Dat^1, D-Ala^2, Orn^12, Abu^15, Orn^21, Nle^27, Asp^28, Har^30]hGH-RH(1-30)NH2 (peptide)
chain: [Desaminotyrosyl][dA]DAIFTNSYR[Orn]VL[Abu]QLSAR[Orn]LLQDI[Nle]DR[hArg]-NH2
SMILES: CCCC[C@H](NC(=O)[C@@H](NC(=O)[C@H](CC(=O)O)NC(=O)[C@H](CCC(N)=O)NC(=O)[C@H](CC(C)C)NC(=O)[C@H](CC(C)C)NC(=O)[C@H](CCCN)NC(=O)[C@H](CCCNC(=N)N)NC(=O)[C@H](C)NC(=O)[C@H](CO)NC(=O)[C@H](CC(C)C)NC(=O)[C@H](CCC(N)=O)NC(=O)[C@H](CC)NC(=O)[C@H](CC(C)C)NC(=O)[C@@H](NC(=O)[C@H](CCCN)NC(=O)[C@H](CCCNC(=N)N)NC(=O)[C@H](Cc1ccc(O)cc1)NC(=O)[C@H](CO)NC(=O)[C@H](CC(N)=O)NC(=O)[C@@H](NC(=O)[C@H](Cc1ccccc1)NC(=O)[C@@H](NC(=O)[C@H](C)NC(=O)[C@H](CC(=O)O)NC(=O)[C@@H](C)NC(=O)CCc1ccc(O)cc1)[C@@H](C)CC)[C@@H](C)O)C(C)C)[C@@H](C)CC)C(=O)N[C@@H](CC(=O)O)C(=O)N[C@@H](CCCNC(=N)N)C(=O)N[C@@H](CCCCNC(=N)N)C(N)=O
- IC50 [4]: 0.14 nM
- Relative affinity (Binding potency) vs GHRH [4]: 42.3 fold, GHRH(1-29) = 1
- Relative affinity (Binding potency) vs JI-38 [4]: 13.9 fold, JI-38 = 1

Next, values leading:

- IC50 [4]: 0.07 nM
- Relative affinity (Binding potency) vs GHRH [4]: 84.5 fold, GHRH(1-29) = 1
- Relative affinity (Binding potency) vs JI-38 [4]: 27.8 fold, JI-38 = 1
B1: [Dat^1, D-Ala^2, Thr^8, Orn^12, Abu^15, Orn^21, Nle^27, Asp^28, Har^30]hGH-RH(1-30)NH2 (peptide)
chain: [Desaminotyrosyl][dA]DAIFTTSYR[Orn]VL[Abu]QLSAR[Orn]LLQDI[Nle]DR[hArg]-NH2
SMILES: CCCC[C@H](NC(=O)[C@@H](NC(=O)[C@H](CC(=O)O)NC(=O)[C@H](CCC(N)=O)NC(=O)[C@H](CC(C)C)NC(=O)[C@H](CC(C)C)NC(=O)[C@H](CCCN)NC(=O)[C@H](CCCNC(=N)N)NC(=O)[C@H](C)NC(=O)[C@H](CO)NC(=O)[C@H](CC(C)C)NC(=O)[C@H](CCC(N)=O)NC(=O)[C@H](CC)NC(=O)[C@H](CC(C)C)NC(=O)[C@@H](NC(=O)[C@H](CCCN)NC(=O)[C@H](CCCNC(=N)N)NC(=O)[C@H](Cc1ccc(O)cc1)NC(=O)[C@H](CO)NC(=O)[C@@H](NC(=O)[C@@H](NC(=O)[C@H](Cc1ccccc1)NC(=O)[C@@H](NC(=O)[C@H](C)NC(=O)[C@H](CC(=O)O)NC(=O)[C@@H](C)NC(=O)CCc1ccc(O)cc1)[C@@H](C)CC)[C@@H](C)O)[C@@H](C)O)C(C)C)[C@@H](C)CC)C(=O)N[C@@H](CC(=O)O)C(=O)N[C@@H](CCCNC(=N)N)C(=O)N[C@@H](CCCCNC(=N)N)C(N)=O

- IC50 [5]: 0.27 nM
- Relative affinity (Binding potency) vs JI-38 [5]: 16.1 fold, JI-38 = 1
- IC50 [6]: 0.01 nM
- Relative affinity (Binding potency) vs GHRH [6]: 406 fold, GHRH(1-29) = 1
- Relative affinity (Binding potency) vs JI-38 [6]: 171 fold, JI-38 = 1
Molecule: [NMeY]ADAIFTQSYR[Orn]VL[Abu]QLSAR[Orn]LLQDI[Nle]D[Agmatine] (also called P20356) [[N-Me-Tyr^1, Gln^8, Orn^12, Abu^15, Orn^21, Nle^27, Asp^28, Agm^29]hGH-RH(1-29)]

- IC50 [5]: 0.86 nM
- Relative affinity (Binding potency) vs JI-38 [5]: 5.06 fold, JI-38 = 1
- IC50 [6]: 0.05 nM
- Relative affinity (Binding potency) vs GHRH [6]: 81.2 fold, GHRH(1-29) = 1
- Relative affinity (Binding potency) vs JI-38 [6]: 34.2 fold, JI-38 = 1
B4: [Dat^1, D-Ala^2, Orn^12, Abu^15, Orn^21, Nle^27, Gln-Gab^30]hGH-RH(1-30)NH2 (peptide)
peptide: [Desaminotyrosyl][dA]DAIFTNSYR[Orn]VL[Abu]QLSAR[Orn]LLQDI[Nle]SRQ[GABA]-NH2
SMILES: CCCC[C@H](NC(=O)[C@@H](NC(=O)[C@H](CC(=O)O)NC(=O)[C@H](CCC(N)=O)NC(=O)[C@H](CC(C)C)NC(=O)[C@H](CC(C)C)NC(=O)[C@H](CCCN)NC(=O)[C@H](CCCNC(=N)N)NC(=O)[C@H](C)NC(=O)[C@H](CO)NC(=O)[C@H](CC(C)C)NC(=O)[C@H](CCC(N)=O)NC(=O)[C@H](CC)NC(=O)[C@H](CC(C)C)NC(=O)[C@@H](NC(=O)[C@H](CCCN)NC(=O)[C@H](CCCNC(=N)N)NC(=O)[C@H](Cc1ccc(O)cc1)NC(=O)[C@H](CO)NC(=O)[C@H](CC(N)=O)NC(=O)[C@@H](NC(=O)[C@H](Cc1ccccc1)NC(=O)[C@@H](NC(=O)[C@H](C)NC(=O)[C@H](CC(=O)O)NC(=O)[C@@H](C)NC(=O)CCc1ccc(O)cc1)[C@@H](C)CC)[C@@H](C)O)C(C)C)[C@@H](C)CC)C(=O)N[C@@H](CO)C(=O)N[C@@H](CCCNC(=N)N)C(=O)N[C@@H](CCC(N)=O)C(=O)NCCCC(N)=O
notes: T0009 prints Asn^s for Asn^8; also called P29702
